Measurements from patent US20260308224A1, “METHODS AND COMPOSITIONS FOR DISPLAYING PEPTIDE LIBRARIES” (priority 2023, published 2026).

Experiments:
DOR [1] = target: T1, DOR (Homo sapiens, UniProt P41143); assay: tethered peptide library sorting on GFP fluorescence with NGS; assay type: cell-based; settings: metric: positive count
T1 construct: Gpa1 with human Gi3 C-terminal five residues; tethered peptide display
From the text: (§1) The first, henceforth referred to as library 1, site saturated the first four positions of the peptide, YGGF, using an NNK mutagenesis strategy (FIG. 5). This is canonically the “message” region, understood to be integral to opioid receptor signaling, with the tyrosine being particularly important. […] In creating this library, it was hoped that it could be determined how much variation is tolerated in this region, and how this might differ for opioid receptor sub-type.
(§2) The second library, library 2, saturated the latter four residues of the peptide, LRRI (FIG. 5). This “address” region is thought to confer receptor specificity, interacting with receptor residues further up the binding pocket (Metzger et al. 2001; Xue et al. 1994; Marie-Pepin et al. 1997), but can still be important for receptor activity. It was hypothesized that more variation would be tolerated in this region, including more sub-type specific variation.
(§3) Libraries were sorted twice on GFP fluorescence. Roughly 15 times the theoretical nucleotide complexity was sorted to ensure rare variants were assayed. […] After the second sorts, the genomes of the positive and negative populations were prepped and the library cassettes were sequenced in technical replicate using NGS at a depth of at least 1 million reads.
(§4) Several strategies were used to both identify unique binders for receptor sub-type and identify generally preferred residues and motifs. Log proportions between the positive and negative pools were determined with a filter of-11 (FIG. 6). […] Because the libraries were sorted twice, and the fraction of cells with a GFP signal small, strong signalers were expected to be present in relatively high numbers in the positive pool.
(§5) To incorporate both metrics, log proportions after a cut off of 500 nucleotide read counts were also determined (FIGS. 7 and 8).
(§6) Beyond identification of general motif trends, variants unique to individual receptors were determined. For a general idea of variant specificity, plots showing receptor specificity by the log proportion metric were generated (FIGS. 12 and 13). […] Logo plots of receptor-unique variants by this metric are highlighted in FIGS. 14 and 15. To account for the noise around potentially low count variants, log proportions between positive and negative pools were determined after filtering on a minimum variant read count of 500 in the positive and negative pools. Variants that were receptor unique by this metric are highlighted in the logo plots in FIGS. 16 and 17.
(§7) Peptide candidates for further analysis were determined by manually curating the three discussed methods (Table 1).
(§8) For cell sorting experiments, post-transformation outgrowths were grown overnight in SD-URA/His pH 5.8 media, and cultures were passaged the following day 1:25 to minimize dead and untransformed cells. The following day the saturated cultures were washed three times in SD-URA/His pH 7.1 100 mM MOPS media without a carbon source to minimize glucose carry-over. Cultures were then diluted 1:10 their initial volume in SD-URA/His pH. 7.1 100 mM MOPS 2% galactose 0.2% glucose media and grown for 24 hours. Cells were then resuspended in an equal volume of TE pH 8.0 and 14-15 million events were sorted using a SH800S Cell Sorter (Sony) on GFP fluorescence, gated for singlets. Cells were sorted into SD-His/URA pH 5.8 media with pen/strep and grown for two days post sorting. Cultures were again washed and induced with galactose and sorted via the same parameters into positive and negative pools and grown up for 2 days. Genome extractions were performed using a Zymo Yeast Star kit.

KOR = target: T2, KOR (Homo sapiens, UniProt P41145); assay: as above; assay type: cell-based; settings: metric: positive count
T2 construct: Gpa1 with human Gi3 C-terminal five residues; tethered peptide display
From the text: as §1, §2, §3, §4, §5, §6, §7, §8

MOR = target: T3, MOR (Homo sapiens, UniProt P35372); assay: as above; assay type: cell-based; settings: metric: positive count
T3 construct: Gpa1/Gi3 chimeric G alpha; exogenous or tethered peptides
From the text: as §1, §2, §3, §4, §5, §6, §7, §8

HsDOR = settings: previously tested in yeast (Uddin et al. 2016); cited from earlier work
DOR [2] = target: T1, DOR; assay: tethered peptide agonist display, GFP reporter signaling in yeast; assay type: cell-based; settings: individually cloned tethered isolates (FIG. 27)
Experimental: Anchoring with Flo42 at both the N- and C-termini of the peptides was tried. Additionally, versions with and without a glycine-serine linker between the peptide and the Flo42 region were assayed (versions with linker, FIG. 19). To enable rapid screening, the tethered peptide cassette was expressed on a plasmid under the control of a constitutive promoter.
Expression was driven by a galactose-inducible promoter, pGal1, and the construct was integrated into the yeast genome. The inducible promoter was used to control the length of peptide expression and minimize potential for unwanted selection from long-term constitutive expression. Like the tethered peptide cassette, receptors were integrated into the genome to avoid downstream issues with variable plasmid copy number and sorting (Bean et al. 2022).
Plasmids were constructed using Golden Gate assembly of components from the Yeast Toolkit with some adaptations. Receptors were expressed on either 2μ URA3 backbones driven by the CCW12 promoter or integrated into the yeast genome using a URA3 auxotrophic marker and driven by the TDH3 promoter. Tethered peptide cassettes were expressed on either a Cen6 HIS3 backbone or integrated into the yeast genome using HIS3 auxotrophic markers and were driven by pHHF2 for plasmid-based expression, and pGal1 for integrated expression. Oligos were ordered as gblocks or single stranded DNA from IDT.

human opioid receptors = assay: tethered peptide orientations and controls, GFP reporter signaling in yeast; assay type: cell-based; settings: pGal1, integrated; FIG. 20 (cholesterol-producing strain CJM263)
Experimental: Due to the limited application and efficacy of activating human GPCRs via this strategy, several tethering orientations for the dynorphin peptides were attempted. Anchoring with Flo42 at both the N- and C-termini of the peptides was tried. Additionally, versions with and without a glycine-serine linker between the peptide and the Flo42 region were assayed (versions with linker, FIG. 19). To enable rapid screening, the tethered peptide cassette was expressed on a plasmid under the control of a constitutive promoter.
This optimized tethering orientation was then assayed in the context to be used for library peptide display. Expression was driven by a galactose-inducible promoter, pGal1, and the construct was integrated into the yeast genome. The inducible promoter was used to control the length of peptide expression and minimize potential for unwanted selection from long-term constitutive expression. Like the tethered peptide cassette, receptors were integrated into the genome to avoid downstream issues with variable plasmid copy number and sorting (Bean et al. 2022). […] It was decided to screen MOR with the peptide libraries to determine if there were any variations that could rescue function, with the hypothesis that the sequence space assayed would likely contain variants capable of activating the receptor. […]

T1 sequence (P41143 whole entry): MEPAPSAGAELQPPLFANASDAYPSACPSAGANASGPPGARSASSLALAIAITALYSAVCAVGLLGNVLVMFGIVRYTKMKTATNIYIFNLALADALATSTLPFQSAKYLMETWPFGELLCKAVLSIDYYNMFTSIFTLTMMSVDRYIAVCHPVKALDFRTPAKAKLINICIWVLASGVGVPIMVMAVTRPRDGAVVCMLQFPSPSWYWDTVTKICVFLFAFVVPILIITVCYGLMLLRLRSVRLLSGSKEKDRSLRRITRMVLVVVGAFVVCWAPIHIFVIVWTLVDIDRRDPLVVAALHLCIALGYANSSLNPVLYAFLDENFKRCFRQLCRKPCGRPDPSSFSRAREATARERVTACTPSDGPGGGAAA
T2 sequence (P41145 whole entry): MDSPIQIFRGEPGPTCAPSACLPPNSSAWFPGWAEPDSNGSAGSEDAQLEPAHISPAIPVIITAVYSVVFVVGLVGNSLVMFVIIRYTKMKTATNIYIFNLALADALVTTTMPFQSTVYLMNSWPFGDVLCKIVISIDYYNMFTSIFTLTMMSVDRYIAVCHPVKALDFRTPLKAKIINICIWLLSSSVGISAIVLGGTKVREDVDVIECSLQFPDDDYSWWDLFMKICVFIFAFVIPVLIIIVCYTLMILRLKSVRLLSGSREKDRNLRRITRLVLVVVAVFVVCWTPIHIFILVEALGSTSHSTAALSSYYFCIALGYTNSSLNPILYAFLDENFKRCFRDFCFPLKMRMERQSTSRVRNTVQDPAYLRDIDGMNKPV
T3 sequence (P35372 whole entry): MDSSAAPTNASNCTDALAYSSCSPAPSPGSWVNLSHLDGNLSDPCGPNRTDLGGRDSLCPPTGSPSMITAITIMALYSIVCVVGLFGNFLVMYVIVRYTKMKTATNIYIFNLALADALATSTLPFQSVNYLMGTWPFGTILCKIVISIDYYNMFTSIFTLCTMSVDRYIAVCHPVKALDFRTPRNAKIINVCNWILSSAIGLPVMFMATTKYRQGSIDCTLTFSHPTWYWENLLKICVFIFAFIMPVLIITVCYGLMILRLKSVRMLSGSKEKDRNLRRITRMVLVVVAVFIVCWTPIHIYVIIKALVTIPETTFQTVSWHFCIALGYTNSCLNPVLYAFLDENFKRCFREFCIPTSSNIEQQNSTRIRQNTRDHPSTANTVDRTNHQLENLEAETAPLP

Substance: YGGFGGSG
- top-performing motif unique for receptor (DOR [1]; library 2): DOR

Substance: YGGFYSRW
- top-performing motif unique for receptor (KOR; library 2): KOR

Substance: LVLLLRRI
- top-performing motif unique for receptor (MOR; library 1): MOR

Substance: YQRFLRRI
- top-performing motif unique for receptor (KOR; library 1): KOR

Substance: WWPDLRRI
- top-performing motif unique for receptor (DOR [1]; library 1): DOR

Substance: YGGFMGSV
- top-performing motif unique for receptor (MOR; library 2): MOR

Substance: YGGFRCCA
- top-performing motif unique for receptor (MOR; library 2): MOR

Substance: dynorphin A 1-17
- activity (HsDOR): showed activity

Substance: SAWPLRRI
- top-performing motif unique for receptor (KOR; library 1): KOR

Substance: YGFDLLRI
- receptor specificity of individually cloned isolates (DOR [2]): delta-specific
- signaling of individually cloned isolates (DOR [2]): signaled strongly

Substance: YGGFGSGR
- top-performing motif unique for receptor (DOR [1]; library 2): DOR

Substance: YGGFYRLR
- top-performing motif unique for receptor (KOR; library 2): KOR

Substance: YGGFYSYA
- top-performing motif unique for receptor (KOR; library 2): KOR

Substance: GGGSGGGGSGGGSGGGGS [glycine-serine linker, glycine-serine linker, without peptide agonist, negative control]
- activity of negative controls (human opioid receptors): no activity

Substance: SVPFLRRI
- top-performing motif unique for receptor (KOR; library 1): KOR

Substance: SHYVLRRI
- top-performing motif unique for receptor (KOR; library 1): KOR

Substance: GLVNLRRI
- top-performing motif unique for receptor (MOR; library 1): MOR

Substance: YGFDLRRI
- top-performing motif unique for receptor (DOR [1]; library 1): DOR

Substance: YGGFMVAT
- top-performing motif unique for receptor (MOR; library 2): MOR

Substance: YGGFSSGL
- top-performing motif unique for receptor (DOR [1]; library 2): DOR

Substance: YGGFSSRG
- top-performing motif unique for receptor (DOR [1]; library 2): DOR

Substance: YGGFMNYP
- top-performing motif unique for receptor (MOR; library 2): MOR

Substance: YGMELRRI
- receptor specificity of individually cloned isolates (DOR [2]): delta-specific
- signaling of individually cloned isolates (DOR [2]): signaled strongly
- top-performing motif unique for receptor (DOR [1]; library 1): DOR

Substance: CDIQLRRI
- top-performing motif unique for receptor (KOR; library 1): KOR

Substance: YGGFSSSG
- top-performing motif unique for receptor (DOR [1]; library 2): DOR
